According to patent publication US20160367623A1, “AGONISTS OF GUANYLATE CYCLASE USEFUL FOR THE TREATMENT OF GASTROINTESTINAL DISORDERS, INFLAMMATION, CANCER AND OTHER DISORDERS” (priority 2015, published 2016):
Bridge positions count the residues as written; N and C are the ends. Ends that are not written are not given here.

Test system: patients with chronic idiopathic constipation (CIC)
Assay: Second phase 3 CIC trial: treatment emergent adverse events, safety

Substance: Asn^1-Asp^2-Glu^3-Cys^4-Glu^5-Leu^6-Cys^7-Val^8-Asn^9-Val^10-Ala^11-Cys^12-Thr^13-Gly^14-Cys^15-Leu^16 (NDECELCVNVACTGCL; disulfide 4-12, 7-15) [Plecanatide]
- Influenza like illness: events E (Active Combined (N = 936)): 1
- Influenza like illness: patients % (Active Combined (N = 936)): (0.1) %
- Influenza like illness: patients (%) (Active Combined (N = 936)): (0.1) %
- Influenza like illness: patients N (Active Combined (N = 936)): 1
- Influenza: events E (Active Combined (N = 936)): 9
- Influenza: patients % (Active Combined (N = 936)): (1.0) %
- Influenza: patients N (Active Combined (N = 936)): 9
- Injury, poisoning and procedural complications (SOC): events E (Active Combined (N = 936)): 19
- Injury, poisoning and procedural complications (SOC): patients % (Active Combined (N = 936)): (1.7) %
- Injury, poisoning and procedural complications (SOC): patients N (Active Combined (N = 936)): 16
- Insomnia, events E (Active Combined (N = 936)): 3
- Insomnia, patients (%) (Active Combined (N = 936)): (0.3) %
- Insomnia, patients N (Active Combined (N = 936)): 3
- Intervertebral disc disorder, Mild: events E (Active Combined (N = 936)): 0
- Intervertebral disc disorder, Mild: patients N (Active Combined (N = 936)): 0
- Intervertebral disc disorder, Moderate: events E (Active Combined (N = 936)): 0
- Ligament sprain, events E (Active Combined (N = 936)): 2
- Ligament sprain, patients (%) (Active Combined (N = 936)): (0.2) %
- Ligament sprain, patients N (Active Combined (N = 936)): 2
- Musculoskeletal and connective tissue disorders [System Organ Class], events E (Active Combined (N = 936)): 19
- Musculoskeletal and connective tissue disorders [System Organ Class], patients (%) (Active Combined (N = 936)): (2.0) %
- Musculoskeletal and connective tissue disorders [System Organ Class], patients N (Active Combined (N = 936)): 19
- Musculoskeletal and connective tissue disorders, Mild: events E (Active Combined (N = 936)): 10
- Musculoskeletal and connective tissue disorders, Mild: patients (%) (Active Combined (N = 936)): (1.1) %
- Musculoskeletal and connective tissue disorders, Mild: patients N (Active Combined (N = 936)): 10
- Musculoskeletal and connective tissue disorders, Moderate: events E (Active Combined (N = 936)): 9
- Musculoskeletal and connective tissue disorders, Moderate: patients (%) (Active Combined (N = 936)): (1.0) %
- Musculoskeletal and connective tissue disorders, Moderate: patients N (Active Combined (N = 936)): 9
- Musculoskeletal and connective tissue disorders, Severe: events E (Active Combined (N = 936)): 0
- Musculoskeletal and connective tissue disorders, Severe: patients N (Active Combined (N = 936)): 0
- Musculoskeletal and connective tissue disorders: events E (Active Combined (N = 936)): 19
- Musculoskeletal and connective tissue disorders: patients (%) (Active Combined (N = 936)): (2.0) %
- Musculoskeletal and connective tissue disorders: patients N (Active Combined (N = 936)): 19
- Musculoskeletal chest pain, Mild: events E (Active Combined (N = 936)): 1
- Musculoskeletal chest pain, Mild: patients (%) (Active Combined (N = 936)): (0.1) %
- Musculoskeletal chest pain, Mild: patients N (Active Combined (N = 936)): 1
- Musculoskeletal chest pain, Moderate: events E (Active Combined (N = 936)): 0
- Musculoskeletal chest pain, Moderate: patients N (Active Combined (N = 936)): 0
- Musculoskeletal chest pain, Severe: events E (Active Combined (N = 936)): 0
- Musculoskeletal chest pain, Severe: patients N (Active Combined (N = 936)): 0
- Musculoskeletal chest pain: events E (Active Combined (N = 936)): 1
- Musculoskeletal chest pain: patients (%) (Active Combined (N = 936)): (0.1) %
- Musculoskeletal chest pain: patients N (Active Combined (N = 936)): 1
- Musculoskeletal pain, Mild: events E (Active Combined (N = 936)): 1
- Musculoskeletal pain, Mild: patients (%) (Active Combined (N = 936)): (0.1) %
- Musculoskeletal pain, Mild: patients N (Active Combined (N = 936)): 1
- Musculoskeletal pain, Moderate: events E (Active Combined (N = 936)): 1
- Musculoskeletal pain, Moderate: patients (%) (Active Combined (N = 936)): (0.1) %
- Musculoskeletal pain, Moderate: patients N (Active Combined (N = 936)): 1
- Musculoskeletal pain, Severe: events E (Active Combined (N = 936)): 0
- Musculoskeletal pain, Severe: patients N (Active Combined (N = 936)): 0
- Musculoskeletal pain: events E (Active Combined (N = 936)): 2
- Musculoskeletal pain: patients (%) (Active Combined (N = 936)): (0.2) %
- Musculoskeletal pain: patients N (Active Combined (N = 936)): 2
- SAE Musculoskeletal and connective tissue disorders, E events (Active Combined (N = 936)): 0
- SAE Musculoskeletal and connective tissue disorders, N patients (Active Combined (N = 936)): 0
- SAE Musculoskeletal and connective tissue disorders, No Reasonable Possibility, E events (Active Combined (N = 936)): 0
- SAE Musculoskeletal and connective tissue disorders, No Reasonable Possibility, N patients (Active Combined (N = 936)): 0
- SAE Musculoskeletal and connective tissue disorders, Reasonable Possibility, E events (Active Combined (N = 936)): 0
- SAE Musculoskeletal and connective tissue disorders, Reasonable Possibility, N patients (Active Combined (N = 936)): 0
- Skeletal injury, events E (Active Combined (N = 936)): 1
- Skeletal injury, patients (%) (Active Combined (N = 936)): (0.1) %
- Skeletal injury, patients N (Active Combined (N = 936)): 1
- TE SAE: Musculoskeletal and connective tissue disorders, E events (Active Combined (N = 936)): 0
- TE SAE: Musculoskeletal and connective tissue disorders, N patients (Active Combined (N = 936)): 0
- TEAE Leading to Discontinuation: Infections and infestations, % patients (Active Combined (N = 936)): (0.1) %
- TEAE Leading to Discontinuation: Infections and infestations, E events (Active Combined (N = 936)): 1
- TEAE Leading to Discontinuation: Infections and infestations, N patients (Active Combined (N = 936)): 1
- TEAE Leading to Discontinuation: Musculoskeletal and connective tissue disorders, E events (Active Combined (N = 936)): 0
- TEAE Leading to Discontinuation: Musculoskeletal and connective tissue disorders, N patients (Active Combined (N = 936)): 0
- TEAE Leading to Discontinuation: Viral infection, % patients (Active Combined (N = 936)): (0.1) %
- TEAE Leading to Discontinuation: Viral infection, E events (Active Combined (N = 936)): 1
- TEAE Leading to Discontinuation: Viral infection, N patients (Active Combined (N = 936)): 1
- Musculoskeletal and connective tissue disorders [System Organ Class], events E (Plecanatide 3 mg (N = 467)): 8
- Musculoskeletal and connective tissue disorders [System Organ Class], patients (%) (Plecanatide 3 mg (N = 467)): (1.7) %
- Musculoskeletal and connective tissue disorders [System Organ Class], patients N (Plecanatide 3 mg (N = 467)): 8
- Musculoskeletal and connective tissue disorders, Mild: events E (Plecanatide 3 mg (N = 467)): 4
- Musculoskeletal and connective tissue disorders, Mild: patients (%) (Plecanatide 3 mg (N = 467)): (0.9) %
- Musculoskeletal and connective tissue disorders, Mild: patients N (Plecanatide 3 mg (N = 467)): 4
- Musculoskeletal and connective tissue disorders, Moderate: events E (Plecanatide 3 mg (N = 467)): 4
- Musculoskeletal and connective tissue disorders, Moderate: patients (%) (Plecanatide 3 mg (N = 467)): (0.9) %
- Musculoskeletal and connective tissue disorders, Moderate: patients N (Plecanatide 3 mg (N = 467)): 4
- Musculoskeletal and connective tissue disorders, Severe: events E (Plecanatide 3 mg (N = 467)): 0
- Musculoskeletal and connective tissue disorders, Severe: patients N (Plecanatide 3 mg (N = 467)): 0
- Musculoskeletal and connective tissue disorders: events E (Plecanatide 3 mg (N = 467)): 8
- Musculoskeletal and connective tissue disorders: patients (%) (Plecanatide 3 mg (N = 467)): (1.7) %
- Musculoskeletal and connective tissue disorders: patients N (Plecanatide 3 mg (N = 467)): 8
- Musculoskeletal chest pain, Mild: events E (Plecanatide 3 mg (N = 467)): 1
- Musculoskeletal chest pain, Mild: patients (%) (Plecanatide 3 mg (N = 467)): (0.2) %
- Musculoskeletal chest pain, Mild: patients N (Plecanatide 3 mg (N = 467)): 1
- Musculoskeletal chest pain, Moderate: events E (Plecanatide 3 mg (N = 467)): 0
- Musculoskeletal chest pain, Moderate: patients N (Plecanatide 3 mg (N = 467)): 0
- Musculoskeletal chest pain, Severe: events E (Plecanatide 3 mg (N = 467)): 0
- Musculoskeletal chest pain, Severe: patients N (Plecanatide 3 mg (N = 467)): 0
- Musculoskeletal chest pain: events E (Plecanatide 3 mg (N = 467)): 1
- Musculoskeletal chest pain: patients (%) (Plecanatide 3 mg (N = 467)): (0.2) %
- Musculoskeletal chest pain: patients N (Plecanatide 3 mg (N = 467)): 1
- Musculoskeletal pain, Mild: events E (Plecanatide 3 mg (N = 467)): 1
- Musculoskeletal pain, Mild: patients (%) (Plecanatide 3 mg (N = 467)): (0.2) %
- Musculoskeletal pain, Mild: patients N (Plecanatide 3 mg (N = 467)): 1
- Musculoskeletal pain, Moderate: events E (Plecanatide 3 mg (N = 467)): 0
- Musculoskeletal pain, Moderate: patients N (Plecanatide 3 mg (N = 467)): 0
- Musculoskeletal pain, Severe: events E (Plecanatide 3 mg (N = 467)): 0
- Musculoskeletal pain, Severe: patients N (Plecanatide 3 mg (N = 467)): 0
- Musculoskeletal pain: events E (Plecanatide 3 mg (N = 467)): 1
- Musculoskeletal pain: patients (%) (Plecanatide 3 mg (N = 467)): (0.2) %
- Musculoskeletal pain: patients N (Plecanatide 3 mg (N = 467)): 1
- Skeletal injury, events E (Plecanatide 3 mg (N = 467)): 0
- Skeletal injury, patients N (Plecanatide 3 mg (N = 467)): 0
- TE SAE: Musculoskeletal and connective tissue disorders, E events (Plecanatide 3 mg (N = 467)): 0
- TE SAE: Musculoskeletal and connective tissue disorders, N patients (Plecanatide 3 mg (N = 467)): 0
- TEAE Leading to Discontinuation: Musculoskeletal and connective tissue disorders, E events (Plecanatide 3 mg (N = 467)): 0
- TEAE Leading to Discontinuation: Musculoskeletal and connective tissue disorders, N patients (Plecanatide 3 mg (N = 467)): 0
- Musculoskeletal and connective tissue disorders [System Organ Class], events E (Plecanatide 6 mg (N = 469)): 11
- Musculoskeletal and connective tissue disorders [System Organ Class], patients (%) (Plecanatide 6 mg (N = 469)): (2.3) %
- Musculoskeletal and connective tissue disorders [System Organ Class], patients N (Plecanatide 6 mg (N = 469)): 11
- Musculoskeletal and connective tissue disorders, Mild: events E (Plecanatide 6 mg (N = 469)): 6
- Musculoskeletal and connective tissue disorders, Mild: patients (%) (Plecanatide 6 mg (N = 469)): (1.3) %
- Musculoskeletal and connective tissue disorders, Mild: patients N (Plecanatide 6 mg (N = 469)): 6
- Musculoskeletal and connective tissue disorders, Moderate: events E (Plecanatide 6 mg (N = 469)): 5
- Musculoskeletal and connective tissue disorders, Moderate: patients (%) (Plecanatide 6 mg (N = 469)): (1.1) %
- Musculoskeletal and connective tissue disorders, Moderate: patients N (Plecanatide 6 mg (N = 469)): 5
- Musculoskeletal and connective tissue disorders, Severe: events E (Plecanatide 6 mg (N = 469)): 0
- Musculoskeletal and connective tissue disorders, Severe: patients N (Plecanatide 6 mg (N = 469)): 0
- Musculoskeletal and connective tissue disorders: events E (Plecanatide 6 mg (N = 469)): 11
- Musculoskeletal and connective tissue disorders: patients (%) (Plecanatide 6 mg (N = 469)): (2.3) %
- Musculoskeletal and connective tissue disorders: patients N (Plecanatide 6 mg (N = 469)): 11
- Musculoskeletal chest pain, Mild: events E (Plecanatide 6 mg (N = 469)): 0
- Musculoskeletal chest pain, Mild: patients N (Plecanatide 6 mg (N = 469)): 0
- Musculoskeletal chest pain, Moderate: events E (Plecanatide 6 mg (N = 469)): 0
- Musculoskeletal chest pain, Moderate: patients N (Plecanatide 6 mg (N = 469)): 0
- Musculoskeletal chest pain, Severe: events E (Plecanatide 6 mg (N = 469)): 0
- Musculoskeletal chest pain, Severe: patients N (Plecanatide 6 mg (N = 469)): 0
- Musculoskeletal chest pain: events E (Plecanatide 6 mg (N = 469)): 0
- Musculoskeletal chest pain: patients N (Plecanatide 6 mg (N = 469)): 0
- Musculoskeletal pain, Mild: events E (Plecanatide 6 mg (N = 469)): 0
- Musculoskeletal pain, Mild: patients N (Plecanatide 6 mg (N = 469)): 0
- Musculoskeletal pain, Moderate: events E (Plecanatide 6 mg (N = 469)): 1
- Musculoskeletal pain, Moderate: patients (%) (Plecanatide 6 mg (N = 469)): (0.2) %
- Musculoskeletal pain, Moderate: patients N (Plecanatide 6 mg (N = 469)): 1
- Musculoskeletal pain, Severe: events E (Plecanatide 6 mg (N = 469)): 0
- Musculoskeletal pain, Severe: patients N (Plecanatide 6 mg (N = 469)): 0
- Musculoskeletal pain: events E (Plecanatide 6 mg (N = 469)): 1
- Musculoskeletal pain: patients (%) (Plecanatide 6 mg (N = 469)): (0.2) %
- Musculoskeletal pain: patients N (Plecanatide 6 mg (N = 469)): 1
- Skeletal injury, events E (Plecanatide 6 mg (N = 469)): 1
- Skeletal injury, patients (%) (Plecanatide 6 mg (N = 469)): (0.2) %
- Skeletal injury, patients N (Plecanatide 6 mg (N = 469)): 1
- TE SAE: Musculoskeletal and connective tissue disorders, E events (Plecanatide 6 mg (N = 469)): 0
- TE SAE: Musculoskeletal and connective tissue disorders, N patients (Plecanatide 6 mg (N = 469)): 0
- TEAE Leading to Discontinuation: Musculoskeletal and connective tissue disorders, E events (Plecanatide 6 mg (N = 469)): 0
- TEAE Leading to Discontinuation: Musculoskeletal and connective tissue disorders, N patients (Plecanatide 6 mg (N = 469)): 0
